Measurements taken from paper PMC10302723, “Differential regulation of Shigella Spa47 ATPase activity by a native C-terminal product of Spa33” (Frontiers in Cellular and Infection Microbiology, 2023).

B1: Spa33C containing an N-terminal 6 x histidine tag (domain or fragment)
chain: MNDNNEAKINLSESNGESEHTEVSLALFNYDDINVKVDFILLEKNMTINELKMYVENELFKFPDDIVKHVNIKVNGSLVGHGELVSIEDGYGIEISSWMVKE
notes: Spa33, Shigella flexneri 2457T; Homodimer by SV-AUC (27 ± 3 kDa; dimer with His tag = 27.5 kDa); also called recombinant Spa33C; homo-dimeric Spa33C; source: E. coli, purified (IMAC, SEC); not shown: His6, N-terminal, kept
B2: EGFP-Spa33C fluorescent protein chimera with an N-terminal 6 x histidine tag (domain or fragment)
chain: B1 chain
notes: Spa33, Shigella flexneri 2457T; EGFP is the fluorescent probe of the polarisation assay; Oligomer state of the chimera was not measured (Spa33C with His tag is a homodimer); also called fluorescent Spa33C construct; source: E. coli (pET15b), purified (IMAC, SEC); not shown: EGFP, N-terminal, kept

Assays:
[1] = target: the molecule itself; assay: AUC; sedimentation velocity of purified His-tagged Spa33C; a single dominant species of 27 ± 3 kDa; monomer to dimer
[2] = target: T1, monomeric Spa47 (SEC-isolated) (Shigella, UniProt P0A1C1 1-430); assay: fluorescence polarisation; EGFP-Spa33C (or EGFP as control) held at 100 nM, Spa47 monomer or oligomer titrated 0-1.5 μM (monomer units); single site saturation binding model; concentration at half-maximum change in polarisation; conditions: both partners purified
T1 construct: Spa47, Shigella T3SS ATPase; Same construct as m5 and m8; also called Spa47 monomer; monomeric Spa47 isolate; source: E. coli, purified (chitin column with on-column intein cleavage, anion exchange, SEC isolation of the monomer)

[3] = target: T2, oligomeric Spa47 (SEC-isolated homo-oligomer) (Shigella, UniProt P0A1C1 1-430); assay: as above; conditions: both partners purified
T2 construct: Spa47, Shigella T3SS ATPase; Same construct as m5 and m7; also called Spa47 oligomer; homo-oligomeric Spa47; source: E. coli, purified (chitin column with on-column intein cleavage, anion exchange, SEC isolation of the oligomer)

| Binder | stoichiometry N [1] | Kd [2] [nM] | Kd [3] [nM] |
| --- | --- | --- | --- |
| B1 | 2 | – | – |
| B2 | – | 50 ± 7 | 80 ± 10 |
